Paper PMC4087149

B1: hyaluronidase1 (HYAL1): N99Q (protein)
parent chain: MAAHLLPICALFLTLLDMAQGFRGPLLPNRPFTTVWNANTQWCLERHGVDVDVSVFDVVANPGQTFRGPDMTIFYSSQLGTYPYYTPTGEPVFGGLPQNASLIAHLARTFQDILAAIPAPDFSGLAVIDWEAWRPRWAFNWDTKDIYRQRSRALVQAQHPDWPAPQVEAVAQDQFQGAARAWMAGTLQLGRALRPRGLWGFYGFPDCYNYDFLSPNYTGQCPSGIRAQNDQLGWLWGQSRALYPSIYMPAVLEGTGKSQMYVQHRVAEAFRVAVAAGDPNLPVLPYVQIFYDTTNHFLPLDELEHSLGESAAQGAAGVVLWVSWENTRTKESCQAIKEYMDTTLGPFILNVTSGALLCSQALCSGHGRCVRRTSHPKALLLLNPASFSIQLTPGGGPLSLRGALSLEDQAQMAVEFKCRCYPGWQAPWCERKSMW
B2: hyaluronidase1 (HYAL1): N216Q (protein)
parent chain: B1 parent chain
B3: hyaluronidase1 (HYAL1): N350Q (protein)
parent chain: B1 parent chain

What was measured:
[1] = cell lysate anti-myc blot; settings: glycan lost; control: wild type
[2] = in-gel HA digestion, alcian blue staining; settings: glycan lost; control: wild type

| Protein | expression_or_secretion [1] | enzymatic_activity [2] |
| --- | --- | --- |
| B1 | decreases |  |
| B2 | decreases | decreases |
| B3 | decreases | decreases |
